Source: patent US20150197579A1 (MorphoSys, published 2015)

Legend:
Adalimumab/TNF-α complex = Adalimumab/TNF-α complex (human, UniProt P01375 77-233); experiment: real time, label free interaction analysis, Attana A200, immobilized Adalimumab-TNF-α complex, monovalent
Bevacizumab = molecular target: T1, Bevacizumab; experiment: ELISA: antigen coated at 5 µg/mL, Fab-FH at 2 µg/mL, HRP-labeled anti-His antibody, QuantaBlu
T1 construct: not shown: the constant regions
Experimental: (§1) 5 μg/mL of each of the antigens were coated on a microtiter plate over night. […] Detection was performed using an HRP-labeled anti-His antibody and QuantaBlu fluorogenic peroxidase substrate.
(§2) Therefore 5 μg/mL of each of the antigens were coated on a microtiter plate over night. […] Detection was performed using an HRP-labeled anti-His antibody and QuantaBlu fluorogenic peroxidase substrate.

Adalimumab [1] = molecular target: T2, Adalimumab; experiment: as above
T2 construct: not shown: the constant regions
Experimental: as §1, §2

BSA = BSA (bovine, UniProt P02769); experiment: as above
Sequence of BSA (P02769 25-607 limits assumed): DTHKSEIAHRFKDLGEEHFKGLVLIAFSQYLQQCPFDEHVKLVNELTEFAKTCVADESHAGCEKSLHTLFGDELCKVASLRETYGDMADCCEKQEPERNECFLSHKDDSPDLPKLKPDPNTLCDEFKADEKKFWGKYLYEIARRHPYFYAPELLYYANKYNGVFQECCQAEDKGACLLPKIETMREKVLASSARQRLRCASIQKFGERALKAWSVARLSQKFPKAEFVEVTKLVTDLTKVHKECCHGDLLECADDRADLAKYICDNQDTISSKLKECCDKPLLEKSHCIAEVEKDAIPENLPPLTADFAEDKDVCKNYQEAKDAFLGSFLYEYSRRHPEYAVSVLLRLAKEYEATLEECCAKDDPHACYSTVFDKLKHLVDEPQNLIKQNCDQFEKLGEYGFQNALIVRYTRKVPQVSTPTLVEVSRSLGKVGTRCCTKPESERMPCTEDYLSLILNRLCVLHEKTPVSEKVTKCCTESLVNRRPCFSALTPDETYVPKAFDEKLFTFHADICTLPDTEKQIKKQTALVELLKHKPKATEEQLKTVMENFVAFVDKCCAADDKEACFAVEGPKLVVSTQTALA
Experimental: as §1, §2

Ustekinumab [2] = molecular target: T3, Ustekinumab; experiment: as above
T3 construct: not shown: the constant regions
T3 sequence (VH, as listed by the source): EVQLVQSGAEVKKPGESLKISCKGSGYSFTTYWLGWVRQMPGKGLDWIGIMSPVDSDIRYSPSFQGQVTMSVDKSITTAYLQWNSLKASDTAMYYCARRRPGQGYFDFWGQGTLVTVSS
Experimental: as §1, §2

Rituximab [3] = molecular target: T4, Rituximab; experiment: as above
T4 construct: Control antigen in the screening ELISA; also called Rituximab (IgG1kappa); not shown: the constant regions
T4 sequence (VH, as listed by the source, chain 1 of 2): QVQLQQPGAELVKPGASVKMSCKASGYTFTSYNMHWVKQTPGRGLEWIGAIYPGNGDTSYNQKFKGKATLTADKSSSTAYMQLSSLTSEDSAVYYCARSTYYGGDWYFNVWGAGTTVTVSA
T4 sequence (VL, as listed by the source, chain 2 of 2): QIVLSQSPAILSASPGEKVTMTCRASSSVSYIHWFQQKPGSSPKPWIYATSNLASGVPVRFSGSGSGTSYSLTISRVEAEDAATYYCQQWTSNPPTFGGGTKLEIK
Experimental: as §1, §2

Adalimumab [4] = molecular target: T2, Adalimumab; experiment: ELISA: antigen coated at 5 µg/mL, HRP-conjugated AdaTNF#5-hIgG1 at 2 µg/mL in HiSpec buffer, QuantaBlu
Experimental: (§3) Antigens were coated at 5 μg/mL on a microtiter plate over night. […] Detection was performed using the QuantaBlu® fluorogenic peroxidase substrate. […] (FIG. 3)

Ustekinumab [5] = molecular target: T3, Ustekinumab; experiment: as above
Experimental: as §3

Rituximab [6] = molecular target: T4, Rituximab; experiment: as above
Experimental: as §3

T1 sequence (VH, as listed by the source): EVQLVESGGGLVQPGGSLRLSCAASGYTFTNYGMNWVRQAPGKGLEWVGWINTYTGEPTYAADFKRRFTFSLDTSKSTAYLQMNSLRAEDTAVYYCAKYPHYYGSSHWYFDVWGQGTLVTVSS
Sequence of Adalimumab/TNF-α complex (P01375 77-233, one chain of several): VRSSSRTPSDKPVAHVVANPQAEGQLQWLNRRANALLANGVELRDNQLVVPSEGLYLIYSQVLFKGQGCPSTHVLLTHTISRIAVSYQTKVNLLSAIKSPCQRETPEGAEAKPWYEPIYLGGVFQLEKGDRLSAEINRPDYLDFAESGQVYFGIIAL

Kd (Adalimumab/TNF-α complex) [nM]	binding result (Bevacizumab)	binding result (Adalimumab [1])	binding result (BSA)	binding result (Ustekinumab [2])	binding result (Rituximab [3])	binding result (Adalimumab [4])	binding result (Ustekinumab [5])	binding result (Rituximab [6])	Binder
67	no binding (tested: 2 µg/mL)	no binding (tested: 2 µg/mL)	no binding (tested: 2 µg/mL)	no binding (tested: 2 µg/mL)	no binding (tested: 2 µg/mL)	–	–	–	AdaTNF#5 (Fab, V domains shown, HuCAL Fab in Fab-FH format, detected by an anti-His antibody; also called AdaTNb/F#5; anti-Adalimumab/TNF-α antibody in Fab-FH format) VH: QVQLVQSGAEVKKPGSSVKVSCKASGGTFSTNAISWVRQAPGQGLEWMGGINPHLGHADYAQKFQGRVTITADESTSTAYMELSSLRSEDTAVYYCARGWYYIGSNPSMYPNYFDPWGQGTLVTVSS VL: DIQMTQSPSSLSASVGDRVTITCRASQTISSYLNWYQQKPGKAPKLLIYTASNLQSGVPSRFSGSGSGTDFTLTISSLQPEDFATYYCQQVLHLPHTFGQGTKVEIKR
–	–	–	–	–	–	no binding (tested: 2 µg/mL)	no binding (tested: 2 µg/mL)	no binding (tested: 2 µg/mL)	AdaTNF#5-hIgG1 (antibody, V domains shown, antibody conjugated to HRP, site not stated, AdaTNF#5 converted into full length (bivalent) human IgG1, expressed in a human cell line, conjugated to HRP; also called anti-Adalimumab/TNF-α hIgG1 antibody AdaTNF#5 (conjugated to HRP); HRP-conjugated AdaTNF#5-hIgG1) VH: QVQLVQSGAEVKKPGSSVKVSCKASGGTFSTNAISWVRQAPGQGLEWMGGINPHLGHADYAQKFQGRVTITADESTSTAYMELSSLRSEDTAVYYCARGWYYIGSNPSMYPNYFDPWGQGTLVTVSS VL: DIQMTQSPSSLSASVGDRVTITCRASQTISSYLNWYQQKPGKAPKLLIYTASNLQSGVPSRFSGSGSGTDFTLTISSLQPEDFATYYCQQVLHLPHTFGQGTKVEIKR
–	no binding (tested: 2 µg/mL)	no binding (tested: 2 µg/mL)	no binding (tested: 2 µg/mL)	no binding (tested: 2 µg/mL)	no binding (tested: 2 µg/mL)	–	–	–	AdaTNF#1 (Fab, V domains shown, HuCAL Fab in Fab-FH format, detected by an anti-His antibody; also called anti-Adalimumab/TNF-α antibody in Fab-FH format) VH: QVQLVQSGAEVKKPGSSVKVSCKASGGTFSTYAISWVRQAPGQGLEWMGGIIPIFGTANYAQKFQGRVTITADESTSTAYMELSSLRSEDTAVYYCARDYFSSIGWVVYYGPMDYWGQGTLVTVSS VL: not shown
